Legend:
CsBGL = target: T1, CsBGL (Chryseobacterium scophthalmum, UniProt A0A8A3WQK4); test: inhibition of pNP-β-Glc hydrolysis, p-nitrophenol at […] nm; format: biochemical; conditions: substrate pNP-β-Glc 0.1–10 mM, glucose 0–80 mM, 50 mM sodium phosphate pH 7.4, 45 °C; mode not stated
T1 construct: gene bgl
T1 sequence (A0A8A3WQK4 19-775): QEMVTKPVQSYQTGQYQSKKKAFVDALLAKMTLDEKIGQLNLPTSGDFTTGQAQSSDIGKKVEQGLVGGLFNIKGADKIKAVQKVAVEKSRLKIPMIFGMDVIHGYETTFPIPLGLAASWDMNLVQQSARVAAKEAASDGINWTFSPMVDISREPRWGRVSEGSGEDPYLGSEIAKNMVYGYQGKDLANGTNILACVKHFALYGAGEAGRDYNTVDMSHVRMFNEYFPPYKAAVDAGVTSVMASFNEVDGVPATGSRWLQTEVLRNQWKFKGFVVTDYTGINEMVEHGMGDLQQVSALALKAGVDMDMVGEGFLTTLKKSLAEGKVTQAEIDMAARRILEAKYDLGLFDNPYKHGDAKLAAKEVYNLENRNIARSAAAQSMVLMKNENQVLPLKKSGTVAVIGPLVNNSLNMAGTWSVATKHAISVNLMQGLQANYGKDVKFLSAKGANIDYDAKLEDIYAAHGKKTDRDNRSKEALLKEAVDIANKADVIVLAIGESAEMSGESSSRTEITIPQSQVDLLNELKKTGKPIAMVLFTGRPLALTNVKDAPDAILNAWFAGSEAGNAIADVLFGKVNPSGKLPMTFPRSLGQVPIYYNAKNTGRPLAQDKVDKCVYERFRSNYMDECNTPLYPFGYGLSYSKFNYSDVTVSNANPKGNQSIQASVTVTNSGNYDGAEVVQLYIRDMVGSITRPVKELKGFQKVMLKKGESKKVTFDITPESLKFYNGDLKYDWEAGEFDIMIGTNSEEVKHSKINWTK

purified protein = substrate: O=[N+]([O-])c1ccc(O[C@@H]2O[C@H](CO)[C@@H](O)[C@H](O)[C@H]2O)cc1; test: purified protein; format: biochemical, Chryseobacterium scophthalmum; conditions: 50 mM sodium phosphate pH 7.4, 45 °C
[1] = substrate: C=C1C[C@@]23CC[C@H]4[C@@](C)(CCC[C@@]4(C)C(=O)O[C@@H]4O[C@H](CO)[C@@H](O)[C@H](O)[C@H]4O)[C@@H]2CC[C@]1(O[C@@H]1O[C@H](CO)[C@@H](O)[C@H](O)[C@H]1O[C@@H]1O[C@H](CO)[C@@H](O)[C@H](O)[C@H]1O)C3; test: initial velocity of stevioside hydrolysis; format: biochemical, Chryseobacterium scophthalmum; conditions: 50 mM sodium phosphate pH 6.5, 47.5 °C

Row | Molecule | Ki (CsBGL) [mM] | Km (purified protein) [µM] | kcat (purified protein) [s⁻¹] | Km [1] [µM] | kcat [1] [s⁻¹]
1 | OC[C@H]1OC(O)[C@H](O)[C@@H](O)[C@@H]1O (some centres unmarked) [glucose] | 16.4 |  |  |  | 
2 | CsBGL (Chryseobacterium scophthalmum) (protein) QEMVTKPVQSYQTGQYQSKKKAFVDALLAKMTLDEKIGQLNLPTSGDFTTGQAQSSDIGKKVEQGLVGGLFNIKGADKIKAVQKVAVEKSRLKIPMIFGMDVIHGYETTFPIPLGLAASWDMNLVQQSARVAAKEAASDGINWTFSPMVDISREPRWGRVSEGSGEDPYLGSEIAKNMVYGYQGKDLANGTNILACVKHFALYGAGEAGRDYNTVDMSHVRMFNEYFPPYKAAVDAGVTSVMASFNEVDGVPATGSRWLQTEVLRNQWKFKGFVVTDYTGINEMVEHGMGDLQQVSALALKAGVDMDMVGEGFLTTLKKSLAEGKVTQAEIDMAARRILEAKYDLGLFDNPYKHGDAKLAAKEVYNLENRNIARSAAAQSMVLMKNENQVLPLKKSGTVAVIGPLVNNSLNMAGTWSVATKHAISVNLMQGLQANYGKDVKFLSAKGANIDYDAKLEDIYAAHGKKTDRDNRSKEALLKEAVDIANKADVIVLAIGESAEMSGESSSRTEITIPQSQVDLLNELKKTGKPIAMVLFTGRPLALTNVKDAPDAILNAWFAGSEAGNAIADVLFGKVNPSGKLPMTFPRSLGQVPIYYNAKNTGRPLAQDKVDKCVYERFRSNYMDECNTPLYPFGYGLSYSKFNYSDVTVSNANPKGNQSIQASVTVTNSGNYDGAEVVQLYIRDMVGSITRPVKELKGFQKVMLKKGESKKVTFDITPESLKFYNGDLKYDWEAGEFDIMIGTNSEEVKHSKINWTK |  | 1620 | 16.77 | 1540 | 248.59

— publication PMC8546341, “A Novel β-Glucosidase From Chryseobacterium scophthalmum 1433 for Efficient Rubusoside Production From Stevioside” (Frontiers in Microbiology, 2021)
